# Measurements as given in the supplement of paper PMC7125110.
# ± gives the standard error. This sample holds only a part of the variants without activity.
# B1: glmS ribozyme (parent)
# chain: AUAAAAGCGCCAGAACUACAGAAAUGUAGUUGACGAGGAGGAGGUUUAUCGAAUUUUCGGCGGAUGCCUCCAAA
# Variants of: B1
# Experiment: self-cleavage kobs at 2500 uM GlcN6P; higher = faster cleavage; RNA array
# Conditions: with glucosamine-6-phosphate
# How it was run: (§1)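 Glucosamine-6-phosphate (40 μM to 10 mM) in HEPES/KCl/Mg(OAc)2 buffer was flowed over sequenced MiSeq chips, and tiles were imaged over ~14 h. Barcoded ribozyme variants there had been transcribed in situ by E. coli RNA polymerase and were tracked through a hybridised Cy3 probe at 37 °C. One- or two-exponential decay fits to per-tile medians, normalised to baseline and to non-cleaving reference variants, gave kobs. kcat and KM came from weighted Michaelis–Menten fits across concentrations.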
row,Variant,self-cleavage kobs at 2500 uM GlcN6P [s⁻¹]
1,G13C G35U A52C,< 1e-05
2,G29U G37C U46G,< 1e-05
3,C16U U31G G41C C67U,< 1e-05
4,A14U U56A G63A,< 1e-05
5,C11G G35A G40A,< 1e-05
6,G29C G32C,2.89e-05 ± 9.4e-06
7,G38U C67G C68U,0.000248 ± 8.4e-05
8,C10G C19A A39U U69C,< 1e-05
9,U31C G35A A48C,< 1e-05
10,C11A C34A C58U C61G G62A,< 1e-05
11,G37U A53U U57A,< 1e-05
12,A15C A39G U47G A53U,0.000235 ± 8.5e-05
13,C10U A15G G44U C50G,< 1e-05
14,G32U U46A C50U,< 1e-05
15,C8A G35A G38A A53G,< 1e-05
16,G13C C16G U69G,7.16e-05 ± 3.5e-05
17,C10A U30C U55C,< 1e-05
18,U45C U46C C70A,0.000116 ± 4.4e-05
19,G13U G38C A53U,< 1e-05
20,A64C G66A,4.39e-05 ± 1.4e-05
21,A48U G60C G63C C71U,< 1e-05
22,C11U G35C U47G G63A,< 1e-05
23,G9U A12C A14C A48G U49A,< 1e-05
24,A6U G35U G51U,< 1e-05
25,C8A A39C G59U A64C,< 1e-05
26,G13C G38U U47A C70G,< 1e-05
27,A12G A48C C50U,< 1e-05

row,Variant,self-cleavage kobs at 2500 uM GlcN6P [s⁻¹]
1,G7U G59A C61U,< 1e-05
2,G35C G60U C67A,< 1e-05
3,A6U C34A G44A,< 1e-05
4,G13U G66A,0.000499 ± 0.0001
5,A14U U45A C71G,0.000196 ± 5.4e-05
6,A42U U45C U55A,6.42e-05 ± 1.1e-05
7,C34A A39U G41A U54A,< 1e-05
8,C8U A39G G60C,< 1e-05
9,A6U G7C C8G,< 1e-05
10,G7A G44U A48G,< 1e-05
11,U45G U56G A64G,0.00171 ± 0.00054
12,G9C A39G C50U C71A,< 1e-05
13,A52U U57A C71U,0.000749 ± 0.00022
14,A42G G51U C67U,< 1e-05
15,C11U A12G U56C,0.000115 ± 2.6e-05
16,G9U G13U G29C G32C A33G,< 1e-05
17,A12C G13C A42U U49C,< 1e-05
18,A14C A15G G62C C67A,< 1e-05
19,A33G A36U U65G,< 1e-05
20,G13U U47G C67A,7.8e-05 ± 1.6e-05
21,A15C G32C U55C U57C U65C,< 1e-05
22,A12C C16U A39U,0.00306 ± 0.00084
23,A12G A36C G62U,< 1e-05
24,G13A A33C A48C,< 1e-05
25,G7U C16U U46G,< 1e-05
26,U30G U57A,4.22e-05 ± 1.5e-05
27,C8G C58G,< 1e-05

row,Variant,self-cleavage kobs at 2500 uM GlcN6P [s⁻¹]
1,G32C A39C C61G C70U,< 1e-05
2,C8A C10U G32A A48G,< 1e-05
3,G32A G43U G66A C68G,0.00088 ± 0.0003
4,A14U A33U A36C,< 1e-05
5,U57A A64U C67U U69G,8.87e-05 ± 2.4e-05
6,U31C G35A G66U C71A,< 1e-05
7,A6G A14U U30C A48U C67G C68G,7.37e-05 ± 3e-05
8,G9U U31G G44U C61U,< 1e-05
9,G26U A33U,0.000111 ± 2.1e-05
10,G35C C50A A52U,< 1e-05
11,G13C A15U C61G,< 1e-05
12,C16U A42U U54G,0.000152 ± 3e-05
13,A53U U54C U57C C61G,< 1e-05
14,C10U A33C A36U U54A,< 1e-05
15,G38A C50G G59U C61A C67G,8.22e-05 ± 2.2e-05
16,G13C A33C G63A A64C,< 1e-05
17,U46C A52C G60U C61U,< 1e-05
18,G29A U65G,0.000664 ± 0.00023
19,G9U A39U A48U C50A U57C G66A,< 1e-05
20,A39U A52C C71A,< 1e-05
21,C34U U47A G59U A64C C70U,< 1e-05
22,U45G U46A G66U,0.000166 ± 3.9e-05
23,G32U G37U C58U,< 1e-05
24,A33G U56G G59C,< 1e-05
25,A6G C11G U69G,7.2e-05 ± 2.9e-05
26,A14C C16A A42G,5.08e-05 ± 2e-05

# Variants of: B1
# Experiment: self-cleavage kobs at 10000 uM GlcN6P; higher = faster cleavage; RNA array
# Conditions: with glucosamine-6-phosphate
# How it was run: as §1
row,Variant,self-cleavage kobs at 10000 uM GlcN6P [s⁻¹]
1,G29C G32C,9.51e-05 ± 1.2e-05
2,G13U G66A,0.000729 ± 0.00013
3,A52U U57A C71U,0.00177 ± 0.00039
4,A15C G32C U55C U57C U65C,< 1e-05
5,U30G U57A,8.3e-05 ± 1.8e-05
6,U46C A52C G60U C61U,< 1e-05
7,G29A U65G,0.00113 ± 0.00027
